The target in experiment [1] is antibody captured by the human Fab capture kit. Put plainly: SPR (BIAcore), antibody captured via human Fab capture kit, 50 nM receptor injected as analyte.
Experiment [2] concerns the target -. Description: SPR; monomeric, top panel. In general terms: SPR reads the build-up and loss of mass on a sensor chip optically.
The target in experiment [3] is -. Description: SPR; monomeric, middle panel.
In experiment [4] the target is antibody captured by the human Fab capture kit. Put plainly: SPR (BIAcore), antibody captured via human Fab capture kit, 50 nM receptor fusion injected as analyte.

As a reminder, the Kd is the equilibrium constant for the complex coming apart. A low value points to tighter binding.

“FcgammaRIIIaV158 (HisAvi-tag comprising functional variant) (receptor)” registered a response units in experiment [1] of 40 RU.
In the experiment with - [2], “monomeric IL18R-Fc fusion polypeptide (top)” showed a Kd of 0.921 nM.
“monomeric IL18R-Fc fusion polypeptide (middle)” showed a Kd in the experiment with - [3] of 0.801 nM.
Take “FcgammaRIIIaV158-Avi-IgA Protease-Fc LALA P329G fusion polypeptide (Fc fusion)”: in experiment [4], the response units was greater than 100 RU.

The values above are taken from patent US20150218250A1.
